Consider one protein from paper PMC9573744, “Structural Insight of KSIII (β-Ketoacyl-ACP Synthase)-like Acyltransferase ChlB3 in the Biosynthesis of Chlorothricin” (Molecules, 2022).

This data set concerns the molecule itself. Kind of data set: crystal structure; sitting drop vapor diffusion, 0.1 M HEPS pH 7.0, 1.4 M sodium acetate-trihydrate, 20 °C; space group P212121, four dimers per asymmetric unit; 3.1 Å.

B1: ChlB3 (enzyme, Streptomyces antibioticus DSM 40725)
chain: MRTPDIFIKATGRFLPETVSVEWAVEQGHYSAEDAELHELGGAAVAGDTPAPDMALWAAQQAVKRCGHRPEDLGLLLYVDSWHQGPDGWQPQYYLQRHLVGGDVLAVEIQQGCNGMFSALELAAAHLRAGPRPGSALVVAADNFGTPLFDRWTTGPGYIAGDGAGAVVLTTEPGFARLLAVRSLAVPEAEQMHRGAEPLFPPGATIGRPLNFTSRNAAFRELSLTEGLGTGALMRVHQRTLEVVEKTLSEAGITLGDITRVAYMNFSREIVEQRCMAALGLPMSASTWEFGRKLGHLGASDQVVALDELVTTGELGPGDHLLMLGMGPGVTLSCAVVKVLTPAPWSD
notes: ChlB3 acyltransferase of Streptomyces antibioticus DSM 40725, amplified from genomic DNA; chlB3 of 1044 bp cloned into pET28a (NheI/HindIII); also called KSIII (β-ketoacyl-ACP synthase)-like acyltransferase ChlB3; source: E. coli BL21 (DE3), purified (Nickel-NTA, Superdex-200 gel filtration)
A word on the stoichiometry N: it is a count of units in the complex or per binding partner. With B1, the “stoichiometry N” value was 2.
